Columns and labels:
Human CD19-His = molecular target: T1, Human CD19-His (human, UniProt P15391 20-291, limits assumed); assay: SPR (BIAcore), DART-A 0-100 nM, soluble antigen
T1 construct: Soluble antigen in SPR; also called soluble human CD19; not shown: His tag
T1 sequence (looked up): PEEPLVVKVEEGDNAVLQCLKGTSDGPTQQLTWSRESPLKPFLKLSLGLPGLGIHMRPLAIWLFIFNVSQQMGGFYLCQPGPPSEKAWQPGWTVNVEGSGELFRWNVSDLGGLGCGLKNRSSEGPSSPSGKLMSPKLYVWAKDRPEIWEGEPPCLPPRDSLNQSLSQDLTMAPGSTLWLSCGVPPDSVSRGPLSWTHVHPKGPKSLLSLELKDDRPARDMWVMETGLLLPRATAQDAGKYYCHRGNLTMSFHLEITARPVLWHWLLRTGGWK

Cynomolgus CD19-His [1] = molecular target: T2, Cynomolgus CD19-His (cynomolgus monkey, UniProt A0A2K5W8L9 20-292); assay: SPR (BIAcore), DART-A 0-100 nM, soluble antigen
T2 construct: Soluble antigen in SPR; also called soluble cynomolgus monkey CD19; not shown: His tag
T2 sequence: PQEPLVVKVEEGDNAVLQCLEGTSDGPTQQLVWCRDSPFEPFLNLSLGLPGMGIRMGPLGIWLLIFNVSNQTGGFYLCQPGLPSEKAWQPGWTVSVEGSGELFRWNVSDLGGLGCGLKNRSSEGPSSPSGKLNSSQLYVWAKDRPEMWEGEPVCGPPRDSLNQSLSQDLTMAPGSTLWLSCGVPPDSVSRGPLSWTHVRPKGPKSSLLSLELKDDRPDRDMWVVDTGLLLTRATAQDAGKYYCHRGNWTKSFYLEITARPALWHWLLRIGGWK

human CD19 on cells [2] = molecular target: T3, human CD19 on cells (human, UniProt P15391 20-556); assay: cell-based or functional assay
T3 sequence (looked up): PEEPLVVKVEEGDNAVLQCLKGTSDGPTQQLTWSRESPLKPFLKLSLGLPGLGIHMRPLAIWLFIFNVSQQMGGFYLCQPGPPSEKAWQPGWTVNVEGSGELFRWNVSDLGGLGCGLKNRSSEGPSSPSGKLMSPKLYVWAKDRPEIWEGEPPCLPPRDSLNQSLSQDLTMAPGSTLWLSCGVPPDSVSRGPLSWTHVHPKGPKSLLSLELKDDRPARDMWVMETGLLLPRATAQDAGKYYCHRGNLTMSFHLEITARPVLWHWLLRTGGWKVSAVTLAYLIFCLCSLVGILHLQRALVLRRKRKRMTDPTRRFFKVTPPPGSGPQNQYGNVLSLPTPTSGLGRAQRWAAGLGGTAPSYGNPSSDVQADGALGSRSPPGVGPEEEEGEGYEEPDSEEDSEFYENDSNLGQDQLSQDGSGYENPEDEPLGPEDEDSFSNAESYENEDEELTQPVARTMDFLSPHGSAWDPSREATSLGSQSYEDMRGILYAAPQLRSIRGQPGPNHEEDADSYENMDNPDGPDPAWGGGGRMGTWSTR

human CD19 on cells [3] = molecular target: T3, human CD19 on cells; assay: cell-based or functional assay; remark: listed apart in the source
human CD19 on cells [4] = molecular target: T3, human CD19 on cells; assay: cell-based or functional assay; remark: listed apart in the source
[5] = molecular target: cynomolgus monkey CD19 on B cells (cynomolgus monkey); assay: cell-based or functional assay
human CD19 on cells [6] = molecular target: T3, human CD19 on cells; assay: cell-based or functional assay; remark: listed apart in the source
human CD19 on cells [7] = molecular target: T3, human CD19 on cells; assay: cell-based or functional assay; remark: listed apart in the source
human CD3 on T cells = molecular target: T4, human CD3 on T cells (human, UniProt P07766 23-207; P04234 22-171); assay: flow cytometry on human blood leukocytes, CD4+ and CD8+ gate (T cells); detection with biotinylated anti-E-coil/K-coil mAb and streptavidin-PE
T4 construct: also called CD3 on human CD4+ and CD8+ T cells; copies: 1 + 1

human CD19 on cells [8] = molecular target: T3, human CD19 on cells; assay: cell-based or functional assay; remark: listed apart in the source
Cynomolgus CD19-His [9] = molecular target: T2, Cynomolgus CD19-His; assay: SPR (BIAcore), comparison of KD against human CD19-His
human CD19 on cells [10] = molecular target: T3, human CD19 on cells; assay: cell-based or functional assay; remark: listed apart in the source
[11] = molecular target: T5, cynomolgus monkey CD3 on T cells (cynomolgus monkey, UniProt Q95LI5 22-198; Q95LI8 22-171); assay: flow cytometry on cynomolgus monkey blood leukocytes, CD4+ and CD8+ gate (T cells); detection with biotinylated anti-E-coil/K-coil mAb and streptavidin-PE
T5 construct: T cells were gated as CD4+ and CD8+; also called CD3 on cynomolgus monkey CD4+ and CD8+ T cells

human CD19 on cells [12] = molecular target: T3, human CD19 on cells; assay: cell-based or functional assay; remark: listed apart in the source
[13] = molecular target: T6, soluble human CD19-biotin (human, UniProt P15391 20-291, limits assumed, biotin (site not stated)); assay: bifunctional (bispecific) ELISA: plate coated with soluble human CD3ε/δ, DART titrated, detected with soluble human CD19-biotin; the value reflects simultaneous engagement of both antigens
T6 construct: Detection antigen of the bifunctional ELISA
T6 sequence (looked up): T1 sequence (looked up)

T4 sequence (P07766 23-207 limits assumed, chain 1 of 2): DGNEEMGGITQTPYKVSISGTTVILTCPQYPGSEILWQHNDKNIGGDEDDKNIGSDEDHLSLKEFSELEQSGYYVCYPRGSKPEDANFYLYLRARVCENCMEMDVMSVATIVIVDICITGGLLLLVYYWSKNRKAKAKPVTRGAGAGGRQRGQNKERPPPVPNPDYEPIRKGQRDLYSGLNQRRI
T4 sequence (P04234 22-171 limits assumed, chain 2 of 2): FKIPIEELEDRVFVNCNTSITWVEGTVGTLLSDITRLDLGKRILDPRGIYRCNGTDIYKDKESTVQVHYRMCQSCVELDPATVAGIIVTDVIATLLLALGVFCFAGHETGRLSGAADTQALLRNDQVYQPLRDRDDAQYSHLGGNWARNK
T5 sequence (Q95LI5 22-198 limits assumed, chain 1 of 2): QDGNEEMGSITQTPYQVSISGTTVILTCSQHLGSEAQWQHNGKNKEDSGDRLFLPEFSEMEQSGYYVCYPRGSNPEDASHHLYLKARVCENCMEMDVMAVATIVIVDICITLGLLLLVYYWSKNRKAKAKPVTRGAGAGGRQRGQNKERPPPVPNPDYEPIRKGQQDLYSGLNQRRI
T5 sequence (Q95LI8 22-171 limits assumed, chain 2 of 2): as the sequence (P04234 22-171 limits assumed, chain 2 of 2) above, with I5V, N15K, I20V, S32T, D33N, I34N, T64A, S74N, V83L, H141R counted along it

B1: DART-A (CD19×CD3 bi-specific monovalent Fc diabody) (bispecific antibody)
chain 1: ENVLTQSPATLSVTPGEKATITCRASQSVSYMHWYQQKPGQAPRLLIYDASNRASGVPSRFSGSGSGTDHTLTISSLEAEDAATYYCFQGSVYPFTFGQGTKLEIKGGGSGGGGEVQLVESGGGLVQPGGSLRLSCAASGFTFSTYAMNWVRQAPGKGLEWVGRIRSKYNNYATYYADSVKGRFTISRDDSKNSLYLQMNSLKTEDTAVYYCVRHGNFGNSYVSWFAYWGQGTLVTVSSASTKGEVAACEKEVAALEKEVAALEKEVAALEKGGGDKTHTCPPCPAPEAAGGPSVFLFPPKPKDTLMISRTPEVTCVVVDVSHEDPEVKFNWYVDGVEVHNAKTKPREEQYNSTYRVVSVLTVLHQDWLNGKEYKCKVSNKALPAPIEKTISKAKGQPREPQVYTLPPSREEMTKNQVSLWCLVKGFYPSDIAVEWESNGQPENNYKTTPPVLDSDGSFFLYSKLTVDKSRWQQGNVFSCSVMHEALHNHYTQKSLSLSPGK
chain 2: QAVVTQEPSLTVSPGGTVTLTCRSSTGAVTTSNYANWVQQKPGQAPRGLIGGTNKRAPWTPARFSGSLLGGKAALTITGAQAEDEADYYCALWYSNLWVFGGGTKLTVLGGGGSGGGGQVTLRESGPALVKPTQTLTLTCTFSGFSLSTSGMGVGWIRQPPGKALEWLAHIWWDDDKRYNPALKSRLTISKDTSKNQVFLTMTNMDPVDTATYYCARMELWSYYFDYWGQGTTVTVSSASTKGKVAACKEKVAALKEKVAALKEKVAALKE
chain 3: not shown
notes: Three covalently bonded chains; one CD19 site and one CD3 site; Fc with L234A/L235A, knob/hole, H435R on third chain; also called CD19×CD3 bi-specific molecule; CD19×CD3 bi-specific DART-A
Kd (Human CD19-His): 2000 pM
koff (Human CD19-His): 0.00056 s⁻¹
kon (Human CD19-His): 280000 M⁻¹ s⁻¹
Kd (Cynomolgus CD19-His [1]): 20300 pM
koff (Cynomolgus CD19-His [1]): 0.0047 s⁻¹
kon (Cynomolgus CD19-His [1]): 240000 M⁻¹ s⁻¹
EC50 of redirected killing of Raji/GF cells, E:T = 1:1, 72 hours (human CD19 on cells [2]): 2.79 pM
EC50 of redirected killing of Raji/GF cells, E:T = 1:1, 96 hours (human CD19 on cells [2]): 0.44 pM
EC50 of redirected killing of Raji/GF cells, E:T = 2.5:1, 72 hours (human CD19 on cells [2]): 1.54 pM
EC50 of redirected killing of Raji/GF cells, E:T = 2.5:1, 96 hours (human CD19 on cells [2]): 0.422 pM
EC50 of redirected killing of Raji/GF cells, 0 nM ibrutinib, CTL assay 24 hours, E:T 10:1 (human CD19 on cells [3]): 0.014 ng/mL
EC50 of redirected killing of Raji/GF cells, 0 nM ibrutinib, CTL assay 48 hours, E:T 10:1 (human CD19 on cells [3]): 0.0022 ng/mL
EC50 of redirected killing of Raji/GF cells, T cells cultured 24 hours with 0 nM ibrutinib, E:T 10:1, 24 hours (human CD19 on cells [4]): 0.042 ng/mL
EC50 of redirected killing of Raji/GF cells, T cells cultured 48 hours with 0 nM ibrutinib, E:T 10:1, 24 hours (human CD19 on cells [4]): 0.0016 ng/mL
EC50 of redirected killing of Raji/GF cells, T cells cultured 72 hours with 0 nM ibrutinib, E:T 10:1, 24 hours (human CD19 on cells [4]): 0.0031 ng/mL
EC50 of redirected killing of Raji/GF cells, T cells pretreated 24 hours with 25 nM ibrutinib (human CD19 on cells [4]): 0.028 ng/mL
EC50 of redirected killing of Raji/GF cells, T cells pretreated 24 hours with 250 nM ibrutinib (human CD19 on cells [4]): 0.033 ng/mL
EC50 of redirected killing of Raji/GF cells, T cells pretreated 24 hours with 750 nM ibrutinib (human CD19 on cells [4]): 0.037 ng/mL
EC50 of redirected killing of Raji/GF cells, T cells pretreated 24 hours with 2500 nM ibrutinib (human CD19 on cells [4]): 0.104 ng/mL
EC50 of redirected killing of Raji/GF cells, T cells pretreated 48 hours with 25 nM ibrutinib (human CD19 on cells [4]): 0.0015 ng/mL
EC50 of redirected killing of Raji/GF cells, T cells pretreated 48 hours with 250 nM ibrutinib (human CD19 on cells [4]): 0.0011 ng/mL
EC50 of redirected killing of Raji/GF cells, T cells pretreated 48 hours with 750 nM ibrutinib (human CD19 on cells [4]): 0.0012 ng/mL
EC50 of redirected killing of Raji/GF cells, T cells pretreated 48 hours with 2500 nM ibrutinib (human CD19 on cells [4]): 0.0044 ng/mL
EC50 of redirected killing of Raji/GF cells, T cells pretreated 72 hours with 25 nM ibrutinib (human CD19 on cells [4]): 0.0021 ng/mL
EC50 of redirected killing of Raji/GF cells, T cells pretreated 72 hours with 250 nM ibrutinib (human CD19 on cells [4]): 0.002 ng/mL
EC50 of redirected killing of Raji/GF cells, T cells pretreated 72 hours with 750 nM ibrutinib (human CD19 on cells [4]): 0.0018 ng/mL
EC50 of redirected killing of Raji/GF cells, T cells pretreated 72 hours with 2500 nM ibrutinib (human CD19 on cells [4]): 0.0085 ng/mL
EC50 of autologous B cell depletion, cynomolgus monkey PBMCs, donor Cyno 5 (E:T = 3:1) [5]: 166 pM
EC50 of autologous B cell depletion, cynomolgus monkey PBMCs, donor Cyno 6 (E:T = 2:1) [5]: 859 pM
EC50 of autologous B cell depletion, cynomolgus monkey PBMCs, donor Cyno 7 (E:T = 3:1) [5]: 107 pM
EC50 of autologous B cell depletion, cynomolgus monkey PBMCs, donor Cyno 8 (E:T = 7:1) [5]: 239 pM
mean EC50 of autologous B cell depletion, cynomolgus monkey PBMCs [5]: 343 pM
EC50 of autologous B cell depletion, human PBMCs, donor Human 5 (E:T = 8:1) (human CD19 on cells [6]): 6.27 pM
EC50 of autologous B cell depletion, human PBMCs, donor Human 6 (E:T = 8:1) (human CD19 on cells [6]): 2.75 pM
EC50 of autologous B cell depletion, human PBMCs, donor Human 7 (E:T = 5:1) (human CD19 on cells [6]): 5.52 pM
EC50 of autologous B cell depletion, human PBMCs, donor Human 8 (E:T = 9:1) (human CD19 on cells [6]): 1.84 pM
mean EC50 of autologous B cell depletion, human PBMCs (human CD19 on cells [6]): 4.2 pM
mean EC50 of IFN-γ release, CTL assay, purified human T cells with Raji/GF tumor cells (E:T = 10:1), n = 2 (human CD19 on cells [7]): 5.51 pM
mean EC50 of IL-2 release, CTL assay, purified human T cells with Raji/GF tumor cells (E:T = 10:1), n = 2 (human CD19 on cells [7]): 6.32 pM
mean EC50 of TNF-α release, CTL assay, purified human T cells with Raji/GF tumor cells (E:T = 10:1), n = 2 (human CD19 on cells [7]): 3.71 pM
mean EC50 of cytotoxicity, CTL assay, HBL-2 (n = 5), human T cells E:T = 10:1 (human CD19 on cells [7]): 0.11 pM
mean EC50 of cytotoxicity, CTL assay, Jeko-1 (n = 3), human T cells E:T = 10:1 (human CD19 on cells [7]): 0.15 pM
mean EC50 of cytotoxicity, CTL assay, Raji/GF (n = 5), human T cells E:T = 10:1 (human CD19 on cells [7]): 0.31 pM
binding result (human CD3 on T cells): binds
EC50 of cytotoxicity against Raji/GF target cells with cynomolgus monkey PBMCs as effector cells (E:T = 30:1) (human CD19 on cells [8]): 0.013 pM
EC50 of redirected killing of HBL-2 cells, human T cells, E:T 10:1 (average) (human CD19 on cells [8]): 10.5 pM
EC50 of redirected killing of Jeko-1 cells, human T cells, E:T 10:1 (average) (human CD19 on cells [8]): 0.146 pM
EC50 of redirected killing of Raji/GF cells, human T cells, E:T 10:1 (average) (human CD19 on cells [8]): 0.307 pM
fold lower affinity than for human CD19 (Cynomolgus CD19-His [9]): ~10 fold
EC50 of redirected killing of Raji/GF cells, E:T = 2.5:1, 48 hours (human CD19 on cells [10]): 1.08 pM
EC50 of redirected killing of Raji/GF cells, E:T = 5:1, 24 hours (human CD19 on cells [10]): 0.67 pM
EC50 of redirected killing of Raji/GF cells, E:T = 5:1, 48 hours (human CD19 on cells [10]): 0.38 pM
EC50 of redirected killing of Raji/GF cells, E:T = 10:1, 24 hours (human CD19 on cells [10]): 0.14 pM
EC50 of redirected killing of Raji/GF cells, E:T = 10:1, 48 hours (human CD19 on cells [10]): 0.0441 pM
binding result [11]: binds
EC50 of autologous B cell depletion, human PBMCs, 0 nM ibrutinib, 48 hours (human CD19 on cells [12]): 0.79 ng/mL
EC50 (read off the curve) [13]: ~80 ng/mL

— patent publication US20170157251A1 (MacroGenics, published 2017)
